We go through 2 molecules from paper PMC5660122 (2017).

Targets include 2V-E06-2V (Squalus acanthias | dogfish); 2V-BA11-2V (Squalus acanthias); 2V-BB11-2V (Squalus acanthias); 2V-BB10-2V (Squalus acanthias); humanized E06 v2.4-2G; humanized E06 BA11; humanized E06 BB11.
Assay in all cases: SPR
(In general: In SPR one partner is held on a chip, and binding of the other changes the refractive index at the surface.)

B1: cynomolgus serum albumin (natural protein)
chain: DTHKSEVAHRFKDLGEEHFKGLVLVAFSQYLQQCPFEEHVKLVNEVTEFAKTCVADESAENCDKSLHTLFGDKLCTVATLRETYGEMADCCAKQEPERNECFLQHKDDNPNLPPLVRPEVDVMCTAFHDNEATFLKKYLYEVARRHPYFYAPELLFFAARYKAAFAECCQAADKAACLLPKLDELRDEGKASSAKQRLKCASLQKFGDRAFKAWAVARLSQKFPKAEFAEVSKLVTDLTKVHTECCHGDLLECADDRADLAKYMCENQDSISSKLKECCDKPLLEKSHCLAEVENDEMPADLPSLAADYVESKDVCKNYAEAKDVFLGMFLYEYARRHPDYSVMLLLRLAKAYEATLEKCCAAADPHECYAKVFDEFQPLVEEPQNLVKQNCELFEQLGEYKFQNALLVRYTKKVPQVSTPTLVEVSRNLGKVGAKCCKLPEAKRMPCAEDYLSVVLNRLCVLHEKTPVSEKVTKCCTESLVNRRPCFSALELDEAYVPKAFNAETFTFHADMCTLSEKEKQVKKQTALVELVKHKPKATKEQLKGVMDNFAAFVEKCCKADDKEACFAEEGPKFVAASQAALA
A word on the Kd: it is the concentration at which binding is half-saturated. What is called koff is the rate constant with which the complex falls apart. A lower koff goes with a long-lived complex. For B1, the Kd was 0.76 nM with 2V-E06-2V, 7.95 nM with 2V-BA11-2V, 0.64 nM in the test with 2V-BB11-2V and 5.5 nM with 2V-BB10-2V. Besides, the koff came out at 0.000126 s⁻¹ with 2V-E06-2V, 9.48e-05 s⁻¹ in the test with 2V-BA11-2V, 0.000472 s⁻¹ in the test with 2V-BB11-2V and 0.00439 s⁻¹ in the test with 2V-BB10-2V.

B2: rat serum albumin (natural protein)
chain: EAHKSEIAHRFKDLGEQHFKGLVLIAFSQYLQKCPYEEHIKLVQEVTDFAKTCVADENAENCDKSIHTLFGDKLCAIPKLRDNYGELADCCAKQEPERNECFLQHKDDNPNLPPFQRPEAEAMCTSFQENPTSFLGHYLHEVARRHPYFYAPELLYYAEKYNEVLTQCCTESDKAACLTPKLDAVKEKALVAAVRQRMKCSSMQRFGERAFKAWAVARMSQRFPNAEFAEITKLATDVTKINKECCHGDLLECADDRAELAKYMCENQATISSKLQACCDKPVLQKSQCLAEIEHDNIPADLPSIAADFVEDKEVCKNYAEAKDVFLGTFLYEYSRRHPDYSVSLLLRLAKKYEATLEKCCAEGDPPACYGTVLAEFQPLVEEPKNLVKTNCELYEKLGEYGFQNAVLVRYTQKAPQVSTPTLVEAARNLGRVGTKCCTLPEAQRLPCVEDYLSAILNRLCVLHEKTPVSEKVTKCCSGSLVERRPCFSALTVDETYVPKEFKAETFTFHSDICTLPDKEKQIKKQTALAELVKHKPKATEDQLKTVMGDFAQFVDKCCKAADKDNCFATEGPNLVARSKEALA
With B2, the Kd with 2V-E06-2V was 7.6 nM; with 2V-BA11-2V, 18.7 nM; in the test with 2V-BB11-2V, 1.49 nM; with humanized E06 v2.4-2G, 7.64 nM; with humanized E06 BA11, 130 nM; with humanized E06 BB11, 8.29 nM. The figures for the koff with 2V-E06-2V, with 2V-BA11-2V and in the test with 2V-BB11-2V were 0.00075 s⁻¹, 0.00054 s⁻¹ and 0.0035 s⁻¹, respectively.
